The source of these data is the DeepSol protein solubility set.

The data set is described as follows: soluble on expression in E. coli; label from the status in PepcDB or PDB records.
For “MLRVRLTKMQSDELDAIIGELQAQMPEASVTTSSIARYALEKYVSDHIAKRDGTKIFIEINTADATEEEIKNLYDLLSKLFDEAKENYSPMVHYMVGEILEPLMMKMARLMKLKKPEVKAGE”, the “soluble on expression in E. coli” value is reported as “not soluble”. Under “MQIFRDVSKLLVERVDPKILNLFRLLGKFGDEVNMPVYVVGGFVRDLLLGIKNLDIDIVVEGNALEFAEYAKRFLPGKLVKHDKFMTASLFLKGGLRIDIATARLEYYESPAKLPDVEMSTIKKDLYRRDFTINAMAIKLNPKDFGLLIDFFGGYRDLKEGVIRVLHTLSFVDDPTRILRAIRFEQRFDFRIEETTERLLKQAVEEGYLERTTGPRLRQELEKILEEKNPLKSIRRMAQFDVIKHLFPKTYYTPSMDEKMENLFRNIPWVEENFGEVDRFYAVLHVFLEFYDDESWKEVRDRYSLRRNLINEIRHVEKSAPALLEMLSERVPASFVYPLVKGVSNETICHFLAYLSGEKEGLFKSYLLKIKNTKLEKINGEYLIRKGITSGKIIGEVLEKILMKKLDGDTRDEEEILEEVLASLETEGKLAAALEHHHHHH” stands “soluble”.

For the sequence “EVQLQQSGPELVKPGASVKISCKASGYSFTGHLLNWVKQSHGKNLEWIGLVHPHNGAITYNQKFKDKATLTVDRSSTTAYIELVRLTSNDSAVYYCAREDFRYHYSMDYWGQGTSVTVSSAKTTPPSVYPLAPVCGDTTGSSVTLGCLVKGYFPEPVTLTWNSGSLSSGVHTFPAVLQSDLYTLSSSVTVTSSTWPSQSVTCNVAHPASSTKVDKKIVPK”, the “soluble on expression in E. coli” value is “soluble”. In the case of “IVRACRFMAERQIGALIVIERQQNIEDLIEGCIYLDAYITAELIITIFYPLTPLHDGAVVIRDDRIAFASCVLPLSKNPELPKKYGTRHRAAVGITEMSDAVAIVVSEETGEISVAVEGNI”, the “soluble on expression in E. coli” value is recorded as “soluble”.

For “MSLSCLFLQSAGEMLQNCAQSNCRIIPKKLRDMKREEICRLLADKVNKLKNKENSLSELLPDVRLLYGETPFARTPVMYEPGIIILFSGHKIGYINERVFRYDANEYLLLTVPLPFECETYATSEVPLAGLRLNVDILQLQELLMDIGEDEHFQPSMAASGINSATLSEEILCAAERLLDVMERPLDARILGKQIIREILYYVLTGPCGGALLALVSRQTHFSLISRVLKRIENKYTENLSVEQLAAEANMSVSAFHHNFKSVTSTSPLQYLKNYRLHKARMMIIHDGMKASAAAMRVGYESASQFSREFKRYFGVTPGEDAARMRAMQGNEGHHHHHH”, the “soluble on expression in E. coli” value is “soluble”. For the sequence “MEKVGEDEEKTIEEANNSTEETKSDKEEERIKGTIADQVDPVDSTEEGSTGPSNSHTVVSKDHDFSESDMEDEEQVLEFFRRNHGFSPEVTKRNNFPYVNNSERMVLQFQEDTSAETEQTNEMFHSLNDSNEILEGTKSSSASDEDTEDSSSNSDLDSSLSRYYFDGSLPVSAHVEEFETHQDESLVPKDENQVCNPNWWGMI”, the “soluble on expression in E. coli” value was “not soluble”. On to “MAHHHHHHMPPFFEARAEKLMLAAQEECRLLAAQLEKSRAARAASTCGPQGKIRAAPATAPVAATSPPSPRRTYSAATATVAVKGLSIGSSTSTSPDRAGSPSAAPPSASPARVVIPTAATHKEGTLLHLVRGSGLFGSGSRSFVPHYIAVSGSAGISWYASEAEYRQNPSRPLGHADFWIETFNSRGSRFKKAAVCWPLILPDDCPEAKDANKTYFAVDYYTPDEAREQVVLAASSPAERDEWVQLLTKYIDLYLAPRAESEELQHIPRGAEVPLHRSGVIEGEAPGGNIL”, for which the “soluble on expression in E. coli” value is given as “soluble”. The entry for “MSSNECFKCGRSGHWARECPTGGGRGRGMRSRGRGFQFVSSSLPDICYRCGESGHLAKDCDLQEDACYNCGRGGHIAKDCKEPKREREQCCYNCGKPGHLARDCDHADEQKCYSCGEFGHIQKDCTKVKCYRCGETGHVAINCSKTSEVNCYRCGESGHLARECTIEATA” is “not soluble”.

For “MGALESLRGNADLAYILSMEPCGHCLIINNVNFCRESGLRTRTGSNIDCEKLRRRFSSLHFMVEVKGDLTAKKMVLALLELARQDHGALDCCVVVILSHGCQASHLQFPGAVYGTDGCPVSVEKIVNIFNGTSCPSLGGKPKLFFIQACGGEQKDHGFEVASTSPEDESPGSNPEPDATPFQEGLRTFDQLDAISSLPTPSDIFVSYSTFPGFVSWRDPKSGSWYVETLDDIFEQWAHSEDLQSLLLRVANAVSVKGIYKQMPGCFNFLRKKLFFKTSHHHHHH”, the “soluble on expression in E. coli” value is on record as “soluble”.

For “MYTEYQPSRLLAPYIDNYWEFKGTPEYGMRIHILPDGCTDFIFTLGEAVSKVKEETLVMQPYRSYFVGPMTKYSELVTYAEFVHQFGVRFLPCGLSGFTKLPLHEFANYRISTNEMQAVFDSTFIERLCEQNDVRGRIQVVEEYLLAYLAHNYQPVDTQVAAAVNIINQSAGKRSVRSLMDEVCLCQRHFERKFKHNTGFTPKEYSRIVKFKNAVELLRNTTSVNLLTTAIDAGYYDLAHFSKEIKTLSGNTPSSFLSLTVPEDITLTYIEP”, the “soluble on expression in E. coli” value is given as “soluble”.

“MGSDKIHHHHHHMMDARRNGLVLLALLLLTQTTISAQTDSMGKDVPIDSVSVATSDSLQTKRGFFKKFLDYFNDANKEKKNKKFDFSVIGGPHYSSDTKFGLGLVAAGLYRTDRNDSILPPSNVSLYGDVSTVGFYLLGVRGNHLFPQEKYRLNYNLYFYSFPSLYWGRGYDNGANSDNESDYKRFQAQVKVDFMFRVAKSFYIGPMAVFDYIDGRDFEKPELWEGMSARTTNTSLGLSLLYDSRDFLTNAYQGYYLRIDQRFSPAFLGNKYAFSSTELTTSYYHPVWKGGVLAGQFHTLLNYGNPPWGLMATLGSSYSMRGYYEGRYRDKCAMDAQIELRQHIWKRNGVAVWAGAGTVFPRFSDFTPKHILPNYGFGYRWEFKKRVNVRLDLGFGKHQTGFIFNINEAF”: the “soluble on expression in E. coli” value is on record as “not soluble”.

Consider “GSRIAKRTAINKTKKADVKAIADAWQINGEKELELLQQIAQKPGALRILNHSLRLAAMTAHGKGERVNEDYLRQAFRELDLDVDISTLLRN”, for which the “soluble on expression in E. coli” value was “soluble”. Consider “MTEQMWIEKLGLEAHPEGGYFKQTNKSEQLIPTKRGERALHTAILFLLNTESPSHFHRLKADELWFFHDGQPLTVHCIFPDGTYQAVQLGKDLVQGQQLSFSVPAGTIFGSTVATGFALVSCVVTPGFEFEDFELFTQAELLNDYPQHSEIIQHLAYRELPLEHHHHHH”, for which the “soluble on expression in E. coli” value was “soluble”. With “MSNDDNVELTDGFHVLIDALKMNDIDTMYGVVGIPITNLARMWQDDGQRFYSFRHEQHAGYAASIAGYIEGKPGVCLTVSAPGFLNGVTSLAHATTNCFPMILLSGSSEREIVDLQQGDYEEMDQMNVARPHCKASFRINSIKDIPIGIARAVRTAVSGRPGGVYVDLPAKLFGQTISVEEANKLLFKPIDPAPAQIPAEDAIARAADLIKNAKRPVIMLGKGAAYAQCDDEIRALVEETGIPFLPMGMAKGLLPDNHPQSAAATRAFALAQCDVCVLIGARLNWLMQHGKGKTWGDELKKYVQIDIQANEMDSNQPIAAPVVGDIKSAVSLLRKALKGAPKADAEWTGALKAKVDGNKAKLAGKMTAETPSGMMNYSNSLGVVRDFMLANPDISLVNEGANALDNTRMIVDMLKPRKRLDSGTWGVMGIGMGYCVAAAAVTGKPVIAVEGDSAFGFSGMELETICRYNLPVTVIIMNNGGIYKGNEADPQPGVISCTRLTRGRYDMMMEAFGGKGYVANTPAELKAALEEAVASGKPCLINAMIDPDAGVESGRIKSLNVVSKVGKK”, the “soluble on expression in E. coli” value is given as “soluble”. Regarding “MLQLTLESSFSNTLTVSELNSYVKSTLEEDFLLKRACIKGEISNCTLHKSGHVYFTLKDENSAIDCVMFKPYTKKLDFSPAEGMSVIIKGKVSLYTKTGKYQFYCNEMEKEGLGDLFIKFKKLKEKLESEGLFNEEYKQKIPKYPKNIGIITSPTGAAIRDIIKVTRNRNSSVNLIIYPAVVQGESAAKTVISGISELNKLEKIDLIIIARGGGSMEDLWCFNNESLARAIFESKKPVITGIGHETDFTISDFVSDLRAATPSNAAEIAIYNEYELKSMINNLERMLKNRMKTEISNRSYELDILYSKIEKNSPKSKIEKQKVHVDKIRAQMNHEIKNKISYEVKRFEKSYSLLNAYNPLNVLNKGYSIIQDENEKIISSKSSLNLENDVKITLKDGTVDAHITLKE”, the “soluble on expression in E. coli” value is given as “not soluble”. With “MNNGTVKWFNAEKGFGFIEQENGGDVFVHFSGIASDGYKTLEEGQKVTFEITEGQRGDQAVNVQTV”, the “soluble on expression in E. coli” value is on record as “not soluble”. For the sequence “GPGSGPVFVQEPSHVMFPLDSEEKKVKLSCEVKGNPKPHIRWKLNGTDVDIGMDFRYSVVDGSLLINNPNKTQDAGTYQCIATNSFGTIVSREAKLQFAYLENFKTRTRSTVSVRRGQGMVLLCGPPPHSGELSYAWIFNEYPSYQDNRRFVSQETGNLYIAKVEKSDVGNYTCVVTNTVTNHKVLGPPTPLILRNDGVMGEYEPKIEVQFPETVPAEKGTTVKLECFALGNPVPTILWRRADGKPIARKARRHKSNGILEIPNFQQEDAGSYECVAENSRGKNVAKGQLTFYAQPNWVQIINDIHVAMEESVFWECKANGRPKPTYRWLKNGDPLLTRDRIQIEQGTLNITIVNLSDAGMYQCVAENKHGVIFSSAELSVIAE”, the “soluble on expression in E. coli” value is “soluble”. The entry for “MATMARWERIVEGVKSIALIKRKIISRGKRIALLVDGPNILRKELGVHLEDIVEALSSLGNIRVAKVILNQYAPQSLIEAVSNQGFEPVIVAGEIGVKLAVEAMREVYNPNIDIIALATRNTEFVPIILKAKEKGKETAIIGVEPGFSSALKHAADYVIVLESRGELSEEGNIEDIEEGKGEGGRGRRKNDRLDN” is “soluble”; for “MGSDKIHHHHHHIEPCADYTTRELDLRNEIKGAEELEEIKYEISKSFPMDELRFPKYWSDLSNQDVLVSEFIEGKSLEEGIEEKSLSWDTLLRLFRIHGAYLFGIGTFHGDLHPGNCIIDNDGKFVFIDNGAICHAPSKVNLSLFQFFENLSSNDFDAAFDSLLGLSDSPLKSTNLDNYYKEMNKIYDGFQNQTVGEKSLTRIMMQTVQAAVEKAGADFGEEAFPIIRALMYLDGLVLRTHPDVKLIESMGPYLEEFRLGLDLENKIKNV” it is “not soluble”; for “MGSDKIHHHHHHMTIETIKRIIEEENVRFIRLQFTDINGTLKNLEITPDVFLESWEDGIMFDGSSIEGFVRIEESDMYLKPVLDTFAVLPWTVDGAKSARVICDVYTPDGKPFEGDPRYRLRRMMEKAEQLGYTPYAGPEMEFFILPINEKGEPVPEFLDHGGYFDLLPLSKVEEIRRDIAIALEKMGITVEATHHEVAPSQHEVDFRYDTFLRTADNAQTVKLVIKTMAIFHGYHATFMPKPFYGVNGSGMHVHMSLFRGDKNAFYDPDDPLGLSKELRYFVGGILKHAKALAAVTNPTINSYKRLVPGYEAPVYISWSVGNRSALIRIPKARGKATRLEYRSPDPSCNIYLAFAAILAAGLDGIINKIEPPAPVEENIYHMTSERREELNIESLPGSLKEAVEELKKDDVIIDALGEHIFEKFVEAAEKDWKEFSTYVTNWELQRYLYL” it is “not soluble”. Turning to “MAHLQYRDGDWYLHASMRKVEAGEGTSESESKHRTVLGVDLGVNNLAVASTGRFWSAGEFNHWRREYEKRRALLQQCGSRHAHENIESVGQKEYGRFEIYLHTVANELIEEAIENDCSHIVFEDLTHIRENIPEATWQHVWAFRRLYEYVEYKAKENGVEAVQVDPRNTSKRCLTCGFTHDDNRNGESFKCQQCGYENHADYNASKNIGLQYLRRRQNADDGGAPVDVRLNRGTLNVSGEYAHPASTEALEHHHHHH”, the “soluble on expression in E. coli” value is listed as “not soluble”.
